B1: DAXX-binding motif of ATRX, ATRX_(1,260–1,289) [not stated] / DAXX helical bundle (DHB) domain, DAXX_(55–144) [not stated] (parent complex)
chain 1: DDDDDNDPENRIAKKMLLEEIKANLSSDED
chain 2: GKKCYKLENEKLFEEFLELCKMQTADHPEVVPFLYNRQQRAHSLFLASAEFCNILSRVLSRARSRPAKLYVYINELCTVLKAHSAKKKLN
B2: ATRX_(1,253–1,326) [not stated] / DAXX helical bundle (DHB) domain, DAXX_(55–144) [not stated] (parent complex)
chain 1: SVPVTVDDDDDDNDPENRIAKKMLLEEIKANLSSDEDGSSDDEPEEGKKRTGKQNEENPGDEEAKNQVNSESDS
chain 2: B1 chain 2

Variants of: B1
Assay: ITC

| Kd | Variant |
| --- | --- |
| 0.85 µM | chain 1 AAAAANDPENRIAKKMLLEEIKANLSSDED [chain 1 D1A, chain 1 D2A, chain 1 D3A, chain 1 D4A, chain 1 D5A] |
| 1.75 µM | chain 1 DDDDDNAPANRIAKKMLLEEIKANLSSDED [chain 1 D7A, chain 1 E9A] |

Variants of: B2
Assay: ITC

| Variant | Kd |
| --- | --- |
| chain 1 SVPVTVDDDDDDNDPENRIAKKMLLEEAKANLSSDEDGSSDDEPEEGKKRTGKQNEENPGDEEAKNQVNSESDS [chain 1 I28A] | 0.4 µM |
| chain 1 SVPVTVDDDDDDNDPENRIAKKMLLEEQKANLSSDEDGSSDDEPEEGKKRTGKQNEENPGDEEAKNQVNSESDS [chain 1 I28Q] | 7.35 µM |
| chain 1 SVPVTVDDDDDDNDPENRIAKKMLLEERKANLSSDEDGSSDDEPEEGKKRTGKQNEENPGDEEAKNQVNSESDS [chain 1 I28R] | 34.8 µM |
| chain 1 SVPVTVDDDDDDNDPENRIAKKMALEEAKANLSSDEDGSSDDEPEEGKKRTGKQNEENPGDEEAKNQVNSESDS [chain 1 L24A, chain 1 I28A] | 12 µM |
| chain 1 SVPVTVDDDDDDNDPENRIRKKMLLEEIKANLSSDEDGSSDDEPEEGKKRTGKQNEENPGDEEAKNQVNSESDS [chain 1 A20R] | 1.04 µM |
| chain 1 SVPVTVDDDDDDNDPENRIAKKMALEEIKANLSSDEDGSSDDEPEEGKKRTGKQNEENPGDEEAKNQVNSESDS [chain 1 L24A] | 8.33 µM |

Other lines, results leading:

| Kd | Variant |
| --- | --- |
| 43.3 µM | chain 1 SVPVTVDDDDDDNDPENRIAKKMQLEEIKANLSSDEDGSSDDEPEEGKKRTGKQNEENPGDEEAKNQVNSESDS [chain 1 L24Q] |
| 73.5 µM | chain 1 SVPVTVDDDDDDNDPENRIAKKMRLEEIKANLSSDEDGSSDDEPEEGKKRTGKQNEENPGDEEAKNQVNSESDS [chain 1 L24R] |
| 0.97 µM | chain 1 SVPVTVDDDDDDNDPENRIAKKMLREEIKANLSSDEDGSSDDEPEEGKKRTGKQNEENPGDEEAKNQVNSESDS [chain 1 L25R] |
